In US20230241072A1, “ANTHRACYCLINE DERIVATIVES” (ALMAC DISCOVERY LIMITED, priority 2019, published 2023):
Where a chain is given by its changes, count along the chain named. In names and notes the source's numbering stands.

Columns and labels:
[1] = target: T1, ROR1 (Homo sapiens, UniProt Q01973); conditions: VNAR domain; data in WO 2019/122447; cited from earlier work
[2] = target: T1, ROR1; experiment: SPR / BLI binding kinetics to immobilised ROR1-hFc; design: ROR1-hFc or ROR2-hFc fusion proteins (extracelluar domains) were immobilised; conditions: for hROR1 Ka / hROR1 Ka (M^−1s^−1): association rate; for Kd: read-out: hROR1 KD
Experimental: (§1) VNARs were genetically fused to engineered hIgG1 Fc domains via standard [G4S]3 that contained a cysteine substitution in the hIgG1 Fc sequence, S239C (EU numbering). The VNAR Fc fusion proteins were expressed as secreted protein in CHO K1 cells and purified from the media using MabSelect™ SuRe™ (Evitria, Switzerland). Purified proteins were analysed by SEC (AdvanceBio, Agilent), SDS PAGE and mass spectrometry to confirm sequence and protein integrity. Binding kinetics were determined using a Pioneer Surface Plasmon Resonance (SPR) instrument (SensiQ/Pall ForteBio), or the Biolayer Interferometry (BLI) Octet K2 system (ForteBio). ROR1-hFc or ROR2-hFc fusion proteins (extracelluar domains) were immobilised in sodium acetate pH5 buffer to COOH2 chips or AR2G sensors using amine coupling. VNARs and VNAR-Fc molecules were tested at various concentrations and the Ka (M^−1 s^−1), Kd (s^−1) and KD (nM) values were determined using QDat software (SensiQ/Pall ForteBio) or Octet Data Analysis High Throughput software (ForteBio) for Biolayer Interferometry. ROR1 2A2 mAb (Biolegend) and ROR2 mAb (R&D Systems) were included as controls for positive/negative binding to ROR1 and ROR2. 2V is a control VNAR sequence, derived from a naïve VNAR library, so is representative of this protein class but has no known target.
(§2) Binding kinetics for binding of the multimeric VNAR proteins to ROR1-hFc or ROR2-hFc fusion proteins (extracelluar domains) were determined using a Pioneer Surface Plasmon Resonance (SPR) instrument (SensiQ/Pall ForteBio) or the Biolayer Interferometry (BLI) Octet K2 system (ForteBio) as previously described.

[3] = target: T2, human ROR2 (Homo sapiens, UniProt Q01974); experiment: SPR / BLI binding to immobilised ROR2-hFc
T2 construct: ROR1-hFc or ROR2-hFc fusion proteins (extracelluar domains) were immobilised
Experimental: as §1, §2

[4] = tested on: 697; experiment: In vitro cell viability assay (Cell Titre Glo), VNAR drug conjugates: 697; assay type: cell-based, human; conditions: for IC50: Table 5, 96 h; for ROR1 targeting/2V non-targeting window 697: ratio to corresponding non-binding 2V-hFc conjugate
Experimental: (§3) In Vitro Cell Viability Assays for Cancer Cells Treated with Anti ROR1 VNAR Drug Conjugates
(§4) Cells were seeded into white, clear bottom 96 well plates (Costar) and incubated at 37° C., 5% CO2 for 24 hours. On the following day, dilution series were set up for each test agent at ×10 working stocks. The dose response ×10 stock was: 10000, 5000, 1000, 500, 100, 50, 10, 5, 1, 0.5 nM etc. 10 μL of the ×10 stock solutions were added to the cell plates (90 μl per well) using a multichannel pipette. […] 100d of vehicle control (PBS) was added to the control wells (columns 11 and 12). Plates were incubated at 37′C, 5% CO2 for 72-96 hours. Promega Cell litre Glo reagent was used as per the manufacturer's instructions to assess cell viability. Briefly, assay plates were removed from incubator and allowed to equilibrate to room temperature before adding […] of room temperature Cell litre Glo reagent to each 100 μl assay well. Plates were placed on a plate shaker for 2 minutes at 600 rpm. Plates were allowed to sit for a further 10 minutes at room temperature prior to measuring luminescence read-out using a Clariostar plate-reader (BMG). Data was analysed by calculating the average for untreated (vehicle only) control wells and determining the % of control for each treated well. % of control data was then plotted against Log [Treatment] concentration and the IC50 value derived using non-linear regression fitting in GraphPad Prism software.
(§5) The following cell lines were used: • Kasumi-2—human B cell leukaemia precursor; • PA-1—human ovarian cancer cell line; • PA-1 ROR1 ko—human ovarian cancer cell line with ROR1 knock-out; • 697—human B cell leukaemia precursor, and • MHH-ES1—human Ewing's sarcoma cell line.

[5] = tested on: MHH-ES1; experiment: In vitro cell viability assay (Cell Titre Glo), VNAR drug conjugates: MHH-ES1; assay type: cell-based, human; conditions: for IC50: Table 5, 96 h; for ROR1 targeting/2V non-targeting window MHH-ES1: ratio to corresponding non-binding 2V-hFc conjugate
Experimental: as §3, §4, §5

[6] = target: Cathepsin B (Homo sapiens, UniProt P07858); experiment: Cathepsin B treatment of protein-PNU conjugates, payload release; assay type: in vitro ADME; conditions: after treatment with Cat B; for Average Conc EDA Released: protein 10 uM (2VhFc conjugate 5 uM)
Excerpt: Cathepsin B treatment of VNAR-hFc-vc-PAB-EDA-PNU conjugates and the corresponding conjugates of the multimeric proteins liberated free EDA-PNU159682 derivative in a quantitative fashion. Whereas, VNAR-hFc-va-EDA-PNU conjugates and the corresponding conjugates of the multimeric proteins were completely stable to Cathepsin B treatment.
Only the vc-PAB-EDA-PNU releases payload on treatment with CatB as expected for the conditions used in this in vitro assay. The release is quantitative—as the conjugates have a drug to antibody ratio of 2, then twice the concentration of payload released versus the concentration of conjugate is expected after CatB treatment. This expectation matches the data shown in Table 11 for vc-PAB-EDA-PNU conjugates.

[7] = tested on: PA-1 ROR1 ko; experiment: In vitro cell viability assay (Cell Titre Glo), VNAR drug conjugates: PA-1 ROR1 ko; assay type: cell-based, human; conditions: for IC50: Table 5, 96 h, PA-1 ROR1 ko; for ROR1 targeting/2V non-targeting window PA-1 31-J-06: ratio to corresponding non-binding 2V-hFc conjugate, PA-1 31-J-06 (ROR1 −/−; matches PA-1 ROR1 ko of Table 5)
Experimental: as §3, §4, §5

[8] = Mouse plasma stability of protein-PNU conjugates (LC-MS of released payload); assay type: in vitro ADME; conditions: 37° C., 4 μM protein
Experimental: (§6) Different P3A1-hFc-PNU conjugates were incubated at 37° C. in mouse plasma at a final concentration of 4 μM of protein. Samples were analysed by LC-MS as a function of time and the amount of released PNU159682 and EDA-PNU159682 derivative was quantified by reference to calibration standards.

[9] = tested on: PA-1; experiment: In vitro cell viability assay (Cell Titre Glo), VNAR drug conjugates: PA-1; assay type: cell-based, human; conditions: for IC50: Table 5, 96 h; for ROR1 targeting/2V non-targeting window PA-1: ratio to corresponding non-binding 2V-hFc conjugate
Experimental: as §3, §4, §5

[10] = tested on: Kasumi-2; experiment: In vitro cell viability assay (Cell Titre Glo), VNAR drug conjugates: Kasumi-2; assay type: cell-based, human; conditions: for IC50: Table 5, 96 h; for ROR1 targeting/2V non-targeting window Kasumi-2: ratio to corresponding non-binding 2V-hFc conjugate
Experimental: as §3, §4, §5

[11] = Human plasma stability of protein-PNU conjugates (LC-MS of released payload); assay type: in vitro ADME; conditions: 37° C., up to 168 h, 4 or 2 uM PDC, LLOQ 0.1 or 0.156 uM
Experimental: as §6, with “Different” for “Different P3A1-hFc-PNU”, “C. for 168 h” for “C.”, “human” for “mouse”, “4 μM or 2” for “4”, “time up to and including 168 h” for “time”

[12] = Table 3, VNAR-Fc fusions, dissociation rate
[13] = Table 3b, VNAR-Fc fusions, dissociation rate

B1: P3A1: VNAR domain, SEQ ID NO: 43 (protein)
VHH: TRVDQTPRTATKETGESLTINCVLTDTSYGLYSTSWFRKNPGTTDWERMSIGGRYVESVNKGAKSFSLRIKDLTVADSATYYCKAREARHPWLRQWYDGAGTVLTVN
binding to ROR1 [1]: bind to ROR1

B2: hFc - P3A1: hIgG1 Fc - VNAR P3A1 fusion (protein)
chain: GGGGSGGGGSGGGGSTRVDQTPRTATKETGESLTINCVLTDTSYGLYSTSWFRKNPGTTDWERMSIGGRYVESVNKGAKSFSLRIKDLTVADSATYYCKAREARHPWLRQWYDGAGTVLTVN
modifications: left off: a dimerising Fc or GST
notes: hIgG1 Fc - VNAR P3A1 fusion
hROR1 Ka ([2]; Table 3, VNAR-Fc fusions): 2.38e+06 M⁻¹ s⁻¹ | hROR1 Kd [2, 12]: 0.000776 s⁻¹ | Kd ([2]; Table 3, VNAR-Fc fusions): 0.35 nM | hROR2 ([3]; Table 3, VNAR-Fc fusions): No binding

B3: B1V15 hFc: humanised VNAR B1V15 (SEQ ID NO: 59) - hFc fusion (protein)
chain: ASVTQSPRSASKETGESLTITCRVTGANYGLAATYWYRKNPGSSNQERISISGRYSESVNKRTMSFSLRISSLTVEDSATYYCKAYPWGAGAPWLVQWYDGQGTKLEVKGGGGSGGGGSGGGGS
modifications: left off: a dimerising Fc or GST
hROR1 Ka ([2]; Table 3b, VNAR-Fc fusions): 179000 M⁻¹ s⁻¹ | hROR1 Kd [2, 13]: 0.00013 s⁻¹ | hROR2 ([3]; Table 3b, VNAR-Fc fusions): No binding

B4: P3A1hFc-PEG4-vc-PAB-EDA-PNU (conjugate)
chain: TRVDQTPRTATKETGESLTINCVLTDTSYGLYSTSWFRKNPGTTDWERMSIGGRYVESVNKGAKSFSLRIKDLTVADSATYYCKAREARHPWLRQWYDGAGTVLTVNGGGGSGGGGSGGGGS
modifications: left off: a dimerising Fc or GST
IC50 [4]: 52 nM | ROR1 targeting/2V non-targeting window 697 [4]: 1.2 | IC50 [5]: 24 nM | ROR1 targeting/2V non-targeting window MHH-ES1 [5]: 1.1 | Average Conc EDA Released [6]: 20.1 µM | IC50 [7]: 11 nM | ROR1 targeting/2V non-targeting window PA-1 31-J-06 [7]: 1.3 | Concentration (nM) of free PNU payload detected by LC-MS, 4 h [8]: 21 nM | Concentration (nM) of free PNU payload detected by LC-MS, 24 h [8]: 84 nM | Concentration (nM) of free PNU payload detected by LC-MS, 48 h [8]: 108 nM | Concentration (nM) of free PNU payload detected by LC-MS, 72 h [8]: 107 nM | Concentration (nM) of free PNU payload detected by LC-MS, 96 h [8]: 101 nM | Concentration (nM) of free PNU payload detected by LC-MS, 120 h [8]: 114 nM | IC50 [9]: 0.1 nM | ROR1 targeting/2V non-targeting window PA-1 [9]: 73 | IC50 [10]: 3.2 nM | ROR1 targeting/2V non-targeting window Kasumi-2 [10]: 18 | Observed EDA payload release [11]: EDA-PNU not detected above LLOQ

B5: P3A1hFc-PEG4-va-EDA-PNU (conjugate)
chain: B4 chain
modifications: left off: a dimerising Fc or GST
IC50 [4]: 61 nM | ROR1 targeting/2V non-targeting window 697 [4]: 4 | IC50 [5]: 18 nM | ROR1 targeting/2V non-targeting window MHH-ES1 [5]: 8.4 | EDA released, per cent of theoretical conc of payload ([6]; figure in brackets): 1.7% | Average Conc EDA Released [6]: 0.36 µM | IC50 [7]: 11.3 nM | ROR1 targeting/2V non-targeting window PA-1 31-J-06 [7]: 4 | Concentration (nM) of free PNU payload detected by LC-MS, 4 h [8]: 3 nM | Concentration (nM) of free PNU payload detected by LC-MS, 24 h [8]: 4 nM | Concentration (nM) of free PNU payload detected by LC-MS, 48 h [8]: 1 nM | Concentration (nM) of free PNU payload detected by LC-MS, 72 h [8]: 2 nM | Concentration (nM) of free PNU payload detected by LC-MS, 96 h [8]: 5 nM | Concentration (nM) of free PNU payload detected by LC-MS, 120 h [8]: 3 nM | IC50 [9]: 0.15 nM | ROR1 targeting/2V non-targeting window PA-1 [9]: 360 | IC50 [10]: 2.3 nM | ROR1 targeting/2V non-targeting window Kasumi-2 [10]: 43 | Observed EDA payload release [11]: no EDA-PNU detected at any time points

B6: P3A1 hFc: ROR1-specific VNAR P3A1 fused to engineered hIgG1 Fc domain (S239C) (protein)
chain: B4 chain
modifications: left off: a dimerising Fc or GST
hROR1 Ka ([2]; Table 3, VNAR-Fc fusions): 1.07e+07 M⁻¹ s⁻¹ | hROR1 Kd [2, 12]: 0.000564 s⁻¹ | Kd ([2]; Table 3, VNAR-Fc fusions): 0.084 nM | hROR2 ([3]; Table 3, VNAR-Fc fusions): No binding

B7: P3A1 hFc(442): VNAR P3A1 fused to engineered hIgG1 Fc with cysteine substitution S442C (EU numbering) (protein)
chain: B4 chain
modifications: left off: a dimerising Fc or GST
hROR1 Ka (M^−1s^−1) ([2]; Table 3b, VNAR-Fc fusions): 2.70+05 M^−1s^−1 | hROR1 Kd [2, 13]: 0.0002 s⁻¹ | hROR2 ([3]; Table 3b, VNAR-Fc fusions): No binding

B8: 2V hFc: non-binding control VNAR 2V fused to hIgG1 Fc (protein)
chain: B4 chain with R86Q, E87S, A88L, R89A, H90I, P91S, W92T, L93R, R94S, Q95Y
modifications: left off: a dimerising Fc or GST
hROR1 KD (nM) ([2]; Table 3, VNAR-Fc fusions): No binding | hROR1 Ka (M^−1s^−1) ([2]; Table 3, VNAR-Fc fusions): No binding | hROR1 Kd (s^−1) [2, 12]: No binding | hROR2 ([3]; Table 3, VNAR-Fc fusions): No binding

B9: P3A1hFc(442)-PEG4-va-EDA-PNU (conjugate)
chain: B4 chain
modifications: left off: a dimerising Fc or GST
IC50 [5]: 37.5 nM | IC50 [7]: 18.3 nM | IC50 [9]: 0.025 nM | IC50 [10]: 9.1 nM | Observed EDA payload release [11]: No EDA-PNU detected at any time points
